Measured values as given in US20260176621A1, “Metabolically Stabilized Carbohydrate Targeting Ligands For Oligonucleotide Conjugates” (Arrowhead Pharmaceuticals, Inc., priority 2023, published 2026).
Where “and” joins values, the source holds several entries; their conditions need not be identical. Equal entries are not always repeated.

B1: AD14216: multimeric (dimer) FXII-ANGPTL3 RNAi agent conjugate with NAG37s ligand, not metabolically stabilized, SEQ ID NO 5-7 (nucleic acid)
chain 1: UUCAAAGCACUUUAUUGAG
chain 2: UUGAGUUGAGUUCAAGUGA
chain 3: UCACUUGAACUCAACUCAACUCAAUAAAGUGCUUUGAA
modifications: NAG37s ligand conjugate; modified_base 1 OTHER; 5'-cyclopropyl phosphonate-2'-O-methyluridine; modified_base 1^2 OTHER; phosphorothioate linkage; modified_base 2 OTHER; 2'-fluorouridine; modified_base 2^3 OTHER; modified_base 3 cm; modified_base 3^4 OTHER; modified_base 4 OTHER; 2'-fluoroadenosine; modified_base 5 OTHER; 2'-O-methyladenosine; modified_base 6 OTHER; 2'-fl; phosphoro
B2: AD14217: multimeric (dimer) FXII-ANGPTL3 RNAi agent conjugate with metabolically stabilized NAG42s ligand, SEQ ID NO 8-10 (nucleic acid)
chain 1: UUCAAAGCACUUUAUUGAG
chain 2: UUGAGUUGAGUUCAAGUGA
chain 3: UCACUUGAACUCAACUCAACUCAAUAAAGUGCUUUGAA
modifications: NAG42s ligand conjugate; modified_base 1 OTHER; 5'-cyclopropyl phosphonate-2'-O-methyluridine; modified_base 1^2 OTHER; phosphorothioate linkage; modified_base 2 OTHER; 2'-fluorouridine; modified_base 2^3 OTHER; modified_base 3 cm; modified_base 3^4 OTHER; modified_base 4 OTHER; 2'-fluoroadenosine; modified_base 5 OTHER; 2'-O-methyladenosine; modified_base 6 OTHER; 2'-fl; phosphoro
B3: AD14218: multimeric (dimer) FXII-ANGPTL3 RNAi agent conjugate with metabolically stabilized NAG52s ligand, SEQ ID NO 11-13 (nucleic acid)
chain 1: UUCAAAGCACUUUAUUGAG
chain 2: UUGAGUUGAGUUCAAGUGA
chain 3: UCACUUGAACUCAACUCAACUCAAUAAAGUGCUUUGAA
modifications: NAG52s ligand conjugate; modified_base 1 OTHER; 5'-cyclopropyl phosphonate-2'-O-methyluridine; modified_base 1^2 OTHER; phosphorothioate linkage; modified_base 2 OTHER; 2'-fluorouridine; modified_base 2^3 OTHER; modified_base 3 cm; modified_base 3^4 OTHER; modified_base 4 OTHER; 2'-fluoroadenosine; modified_base 5 OTHER; 2'-O-methyladenosine; modified_base 6 OTHER; 2'-fl; phosphoro

Experiments:
[1] = test system: FXII; assay: Serum FXII protein by ELISA after single SC dose in cynomolgus monkeys (Example 4); type: in vivo, cynomolgus macaque (Macaca fascicularis); set-up: key to Avg cFXII normalized to pre-treatment and control: ratio to animal's pre-dose geometric mean, then to saline group mean
Experimental: (§1) Multimeric (dimer) RNAi agent conjugates that included metabolically stabilized NAG targeting ligands were evaluated for gene silencing activity in cynomolgus macaque (Macaca fascicularis) primates (referred to herein as “cynos”). Each of the multimeric RNAi agent conjugates evaluated included one RNAi agent of the conjugate having sufficient complementarity with the mouse Angiopoietin-like 3 (ANGPTL3) gene transcript, and a second RNAi agent having sufficient complementarity with the mouse Factor 12 (FXII) gene transcript. As discussed in more detail below, both FXII and ANGPTL3 gene expression levels were assessed.
(§2) At day 1, male cynos were given a single subcutaneous administration of 0.3 mL/kg animal weight (20 mg/mL concentration) containing 6.0 mg/kg (mpk) of a multimeric RNAi agent conjugate formulated in isotonic saline, or 3.0 mg/kg of two separate RNAi conjugates, according to the following Table 3.
(§3) Three (3) cynos were dosed in each Group (n=3). Serum samples were taken on days −14, −7, and day 1 (pre-dose). Serum was then collected on days 8, 15, 22, 29, 36 43, 50, 57, 64, 71, 78, 98, 106, 120, 133, 148, and 162.
(§4) ANGPTL3 protein levels in serum were measured by ELISA assay (R&D Systems), according to the manufacturer's recommendations. FXII protein levels in serum were measured by ELISA assay (R&D Systems), according to the manufacturer's recommendations. The ANGPTL3 protein levels and FXII protein levels for each animal were normalized. For normalization, the level of ANGPTL3 protein or FXII protein, respectively, for each animal at a time point, was divided by the geometric mean of pre-treatment level of expression in that animal (in this case at days −14, −7 and 1 (pre-dose)) to determine the ratio of expression “normalized to pre-treatment.” Expression at a specific time point was then normalized to the saline control group by dividing the “normalized to pre-treatment” ratio for an individual animal by the mean “normalized to pretreatment” ratio of all […] in the saline control group.

[2] = test system: ANGPTL3; assay: Serum ANGPTL3 protein by ELISA after single SC dose in cynomolgus monkeys (Example 4); type: in vivo, cynomolgus macaque (Macaca fascicularis); set-up: key to Avg cANGPTL3 normalized to pre-treatment and control: ratio to animal's pre-dose geometric mean, then to saline group mean
Experimental: as §1, §2, §3, §4

[3] = Day 8, single SC dose day 1, 6.0 mg/kg (Group 1: 3.0+3.0 mg/kg)
[4] = Day 15, single SC dose day 1, 6.0 mg/kg (Group 1: 3.0+3.0 mg/kg)
[5] = Day 22, single SC dose day 1, 6.0 mg/kg (Group 1: 3.0+3.0 mg/kg)
[6] = Day 29, single SC dose day 1, 6.0 mg/kg (Group 1: 3.0+3.0 mg/kg)
[7] = Day 36, single SC dose day 1, 6.0 mg/kg (Group 1: 3.0+3.0 mg/kg)
[8] = Day 43, single SC dose day 1, 6.0 mg/kg (Group 1: 3.0+3.0 mg/kg)
[9] = Day 50, single SC dose day 1, 6.0 mg/kg (Group 1: 3.0+3.0 mg/kg)
[10] = Day 57, single SC dose day 1, 6.0 mg/kg (Group 1: 3.0+3.0 mg/kg)
[11] = Day 64, single SC dose day 1, 6.0 mg/kg (Group 1: 3.0+3.0 mg/kg)
[12] = Day 71, single SC dose day 1, 6.0 mg/kg (Group 1: 3.0+3.0 mg/kg)
[13] = Day 78, single SC dose day 1, 6.0 mg/kg (Group 1: 3.0+3.0 mg/kg)
[14] = Day 98, single SC dose day 1, 6.0 mg/kg (Group 1: 3.0+3.0 mg/kg)
[15] = Day 106, single SC dose day 1, 6.0 mg/kg (Group 1: 3.0+3.0 mg/kg)
[16] = Day 120, single SC dose day 1, 6.0 mg/kg (Group 1: 3.0+3.0 mg/kg)
[17] = Day 133, single SC dose day 1, 6.0 mg/kg (Group 1: 3.0+3.0 mg/kg)
[18] = Day 148, single SC dose day 1, 6.0 mg/kg (Group 1: 3.0+3.0 mg/kg)
[19] = Day 162, single SC dose day 1, 6.0 mg/kg (Group 1: 3.0+3.0 mg/kg)

| Molecule | Avg cFXII normalized to pre-treatment and control [1, 3] | Avg cFXII normalized to pre-treatment and control [1, 4] | Avg cFXII normalized to pre-treatment and control [1, 5] | cFXII knockdown [1, 5] | Avg cFXII normalized to pre-treatment and control [1, 6] | Avg cFXII normalized to pre-treatment and control [1, 7] | Avg cFXII normalized to pre-treatment and control [1, 8] | Avg cFXII normalized to pre-treatment and control [1, 9] | Avg cFXII normalized to pre-treatment and control [1, 10] | Avg cFXII normalized to pre-treatment and control [1, 11] | Avg cFXII normalized to pre-treatment and control [1, 12] | Avg cFXII normalized to pre-treatment and control [1, 13] | Avg cFXII normalized to pre-treatment and control [1, 14] | cFXII knockdown [1, 14] | Avg cFXII normalized to pre-treatment and control [1, 15] | Avg cFXII normalized to pre-treatment and control [1, 16] | Avg cFXII normalized to pre-treatment and control [1, 17] | Avg cFXII normalized to pre-treatment and control [1, 18] | Avg cFXII normalized to pre-treatment and control [1, 19] | Avg cANGPTL3 normalized to pre-treatment and control [2, 3] | further results |
| --- | --- | --- | --- | --- | --- | --- | --- | --- | --- | --- | --- | --- | --- | --- | --- | --- | --- | --- | --- | --- | --- |
| B1 | 0.481 | 0.320 | 0.222 | approximately 78% | 0.179 | 0.224 | 0.237 | 0.130 | 0.194 | 0.184 | 0.429 | 0.491 | 0.592 | approximately 41% | 0.520 | 0.567 | 0.784 | 0.589 | 0.728 | 0.442 | Avg cANGPTL3 normalized to pre-treatment and control [2, 4]: 0.362; Avg cANGPTL3 normalized to pre-treatment and control [2, 5]: 0.339; cANGPTL3 knockdown [2, 5]: approximately 66%; Avg cANGPTL3 normalized to pre-treatment and control [2, 6]: 0.403; Avg cANGPTL3 normalized to pre-treatment and control [2, 7]: 0.369; Avg cANGPTL3 normalized to pre-treatment and control [2, 8]: 0.394; Avg cANGPTL3 normalized to pre-treatment and control [2, 9]: 0.560; Avg cANGPTL3 normalized to pre-treatment and control [2, 10]: 0.622; Avg cANGPTL3 normalized to pre-treatment and control [2, 11]: 0.590; Avg cANGPTL3 normalized to pre-treatment and control [2, 12]: 0.641; Avg cANGPTL3 normalized to pre-treatment and control [2, 13]: 0.603; Avg cANGPTL3 normalized to pre-treatment and control [2, 14]: 0.666; Avg cANGPTL3 normalized to pre-treatment and control [2, 15]: 0.944; cANGPTL3 knockdown [2, 15]: no meaningful knockdown; Avg cANGPTL3 normalized to pre-treatment and control [2, 16]: 1.128; Avg cANGPTL3 normalized to pre-treatment and control [2, 17]: 1.129 |
| B2 | 0.430 | 0.230 | 0.219 | approximately 78% | 0.095 | 0.126 | 0.103 | 0.104 | 0.065 | 0.093 | 0.211 | 0.230 | 0.316 | approximately 69% | 0.316 | 0.443 | 0.536 | 0.567 | 0.468 | 0.361 | Avg cANGPTL3 normalized to pre-treatment and control [2, 4]: 0.288; Avg cANGPTL3 normalized to pre-treatment and control [2, 5]: 0.194; cANGPTL3 knockdown [2, 5]: approximately 81%; Avg cANGPTL3 normalized to pre-treatment and control [2, 6]: 0.261; Avg cANGPTL3 normalized to pre-treatment and control [2, 7]: 0.246; Avg cANGPTL3 normalized to pre-treatment and control [2, 8]: 0.272; Avg cANGPTL3 normalized to pre-treatment and control [2, 9]: 0.327; Avg cANGPTL3 normalized to pre-treatment and control [2, 10]: 0.456; Avg cANGPTL3 normalized to pre-treatment and control [2, 11]: 0.548; Avg cANGPTL3 normalized to pre-treatment and control [2, 12]: 0.521; Avg cANGPTL3 normalized to pre-treatment and control [2, 13]: 0.505; Avg cANGPTL3 normalized to pre-treatment and control [2, 14]: 0.490; Avg cANGPTL3 normalized to pre-treatment and control [2, 15]: 0.777 and 0.770; cANGPTL3 knockdown [2, 15]: approximately 33%; Avg cANGPTL3 normalized to pre-treatment and control [2, 16]: 0.943; Avg cANGPTL3 normalized to pre-treatment and control [2, 17]: 0.892 |
| B3 | 0.299 | 0.201 | 0.156 | approximately 85% | 0.077 | 0.058 | 0.058 | 0.032 | 0.056 | 0.038 | 0.094 | 0.109 | 0.139 | approximately 86% | 0.158 | 0.194 | 0.213 | 0.263 | 0.285 | 0.252 | cFXII inhibition ([1]; Day 162, single SC dose day 1, 6.0 mg/kg): more than 70%; Avg cANGPTL3 normalized to pre-treatment and control [2, 4]: 0.238; Avg cANGPTL3 normalized to pre-treatment and control [2, 5]: 0.137; cANGPTL3 knockdown [2, 5]: ~86%; Avg cANGPTL3 normalized to pre-treatment and control [2, 6]: 0.161; Avg cANGPTL3 normalized to pre-treatment and control [2, 7]: 0.186; Avg cANGPTL3 normalized to pre-treatment and control [2, 8]: 0.164; Avg cANGPTL3 normalized to pre-treatment and control [2, 9]: 0.212; Avg cANGPTL3 normalized to pre-treatment and control [2, 10]: 0.245; Avg cANGPTL3 normalized to pre-treatment and control [2, 11]: 0.352; Avg cANGPTL3 normalized to pre-treatment and control [2, 12]: 0.328; Avg cANGPTL3 normalized to pre-treatment and control [2, 13]: 0.354; Avg cANGPTL3 normalized to pre-treatment and control [2, 14]: 0.425; Avg cANGPTL3 normalized to pre-treatment and control [2, 15]: 0.565; cANGPTL3 knockdown [2, 15]: approximately 45%; Avg cANGPTL3 normalized to pre-treatment and control [2, 16]: 0.637; Avg cANGPTL3 normalized to pre-treatment and control [2, 17]: 0.672 |
